From patent US20180016349A1 (Takeda / Millennium, published 2018) come the findings set out here.

Experiment [1] has as its target T1, soluble human CD38 ectodomain (ECD), R&D Systems Cat #2404-AC (human, UniProt P28907 43-300).
T1 construct: Bought ectodomain; also called HuCD38; human recombinant CD38
The experiment in a line: SPR Biacore A100, 22 C, mAb captured by anti-human IgG, soluble human CD38 ECD as analyte, 1:1 fit. (Surface plasmon resonance follows binding to a sensor surface in real time, without labels.)

In experiment [2] the target is T2, human CD38 on cells (MOLP-8, RPMI-8226, Daudi cell lines, patient cells and tissues) (human, UniProt P28907 1-300). The experiment in a line: cell-based or functional assay.
Experiment [3] has as its target T2, human CD38 on cells (MOLP-8, RPMI-8226, …). The experiment in a line: flow cytometry titration on MOLP-8 cells, 4 C, nonlinear fit; 95% confidence interval in parentheses.
A further experiment concerns the target T3, cynomolgus CD38 (cynomolgus (Macaca fascicularis), UniProt Q5VAN0 1-301, limits assumed).
T3 construct: also called cyCD38; cyno CD38
The experiment in a line: not described at this place (FACS screen on CHO cells expressing cynomolgus CD38 is described in Example 3).

The target of experiment [4] is T2, human CD38 on cells (MOLP-8, RPMI-8226, …). The experiment in a line: flow cytometry (FACS KD) on RPMI-8226 cells. In general terms: A flow cytometer gives signals particle by particle.

T3 sequence (Q5VAN0 whole entry): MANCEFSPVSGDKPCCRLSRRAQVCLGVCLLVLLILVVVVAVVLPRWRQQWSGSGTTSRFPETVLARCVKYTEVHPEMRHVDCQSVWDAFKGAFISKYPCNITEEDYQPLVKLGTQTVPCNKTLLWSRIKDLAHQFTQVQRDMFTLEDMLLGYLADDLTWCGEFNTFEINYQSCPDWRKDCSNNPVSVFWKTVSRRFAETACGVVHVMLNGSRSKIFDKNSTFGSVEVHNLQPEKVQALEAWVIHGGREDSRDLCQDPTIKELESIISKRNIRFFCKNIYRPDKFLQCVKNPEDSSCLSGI

B1: Ab110 (antibody, human IgG1, lambda, V domains shown)
VH: EVQLLESGGGLVQPGGSLRLSCAASGFTFSSYGMHWVRQAPGKGLEWVSIIYSGGSTYYADSVKGRFTISRDNSKNTLYLQMNSLRAEDTAVYYCARRATWGGATHDYWGQGTLVTVSS
VL: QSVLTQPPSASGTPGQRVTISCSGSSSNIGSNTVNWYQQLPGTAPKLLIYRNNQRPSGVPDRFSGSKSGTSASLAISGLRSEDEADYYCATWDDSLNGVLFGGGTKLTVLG
Consider B1, for which, in experiment [1], the affinity, expressed as Kd, was 1400 nM; the dissociation rate constant (koff) worked out at 0.171 s⁻¹; the kon is 122000 M⁻¹ s⁻¹. In addition, in experiment [2], the “ADCC EC50 nM (DAUDI)” value was found to be 0.24 nM, the “ADCC EC50 nM (MOLP-8)” value was 0.874 nM, the “ADCC EC50 nM (RPMI-8226)” value stood at 2.98 nM and the “Apoptosis EC50 nM (DAUDI)” value turned out to be 0.4 nM. The “CDC EC50 nM (MOLP-8)” value in experiment [2] came out at 1.99 nM. The Kd in experiment [3] is 1 nM.

B2: Ab43 (antibody, human IgG1, lambda, V domains shown)
VH: EVQLLESGGGLVQPGGSLRLSCAASGFTFSSYGMHWVRQAPGKGLEWVSRINSDGSSTSYADSMKGQFTISRDNSKNTLYLQMNSLRAEDTAVYYCARGGYYYYAMDVWGQGTLVTVSS
VL: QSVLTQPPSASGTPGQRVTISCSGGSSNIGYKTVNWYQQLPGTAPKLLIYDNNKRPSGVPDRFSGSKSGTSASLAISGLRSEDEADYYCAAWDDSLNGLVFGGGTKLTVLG
For B2, in experiment [1], the Kd came to 537 nM, the koff worked out at 0.146 s⁻¹ and the on-rate (kon) stood at 272000 M⁻¹ s⁻¹. Further, in experiment [2], the “ADCC EC50 nM (DAUDI)” value amounted to 0.12 nM, the “ADCC EC50 nM (MOLP-8)” value was 0.027 nM, the “ADCC EC50 nM (RPMI-8226)” value came to 3.84 nM and the “Apoptosis EC50 nM (DAUDI)” value turned out to be 1.56 nM. In addition, in experiment [2], the “CDC EC50 nM (MOLP-8)” value is 2.2 nM. Besides, the Kd in experiment [3] came to 1.1 nM.

B3: Ab19 (antibody, human IgG1, lambda, V domains shown)
VH: EVQLLESGGGLVQPGGSLRLSCAASGFTFNNYDMTWVRQAPGKGLEWVAVISYDGSDKDYADSVKGRFTISRDNSKNTLYLQMNSLRAEDTAVYYCARVYYYGFSGPSMDVWGQGTLVTVSS
VL: QSVLTQPPSASGTPGQRVTISCSGSNSNIGSNTVNWYQQLPGTAPKLLIYSDSNRPSGVPDRFSGSKSGTSASLAISGLRSEDEADYYCQSYDSSLSGSRVFGGGTKLTVLG
Turning to B3, in the experiment with cynomolgus CD38, the binding result is on record as “binds”. In addition, in experiment [1], the affinity, expressed as Kd, was 5.3 nM. Also, in experiment [2], the “ADCC EC50 nM (DAUDI)” value was 0.08 nM, the “ADCC EC50 nM (MOLP-8)” value came out at 0.038 nM, the “ADCC EC50 nM (RPMI-8226)” value was determined as 0.46 nM and the “Apoptosis EC50 nM (DAUDI)” value is 0.032 nM. Besides, the “CDC EC50 nM (MOLP-8)” value in experiment [2] worked out at 0.98 nM. Besides, the Kd in experiment [3] is 0.4 nM.

B4: Ab79 (antibody, human IgG1, lambda, V domains shown)
VH: EVQLLESGGGLVQPGGSLRLSCAASGFTFDDYGMSWVRQAPGKGLEWVSDISWNGGKTHYVDSVKGQFTISRDNSKNTLYLQMNSLRAEDTAVYYCARGSLFHDSSGFYFGHWGQGTLVTVSS
VL: QSVLTQPPSASGTPGQRVTISCSGSSSNIGDNYVSWYQQLPGTAPKLLIYRDSQRPSGVPDRFSGSKSGTSASLAISGLRSEDEADYYCQSYDSSLSGSVFGGGTKLTVLG
notes: also called TSF79
Molecule B4 returned a Kd in experiment [4] of 0.508 nM. The binding result with cynomolgus CD38 is “binds”. Also, the Kd in experiment [1] turned out to be 5.5 nM. Besides, in experiment [2], the “ADCC EC50 nM (DAUDI)” value worked out at 0.03 nM, the “ADCC EC50 nM (MOLP-8)” value came to 0.047 nM, the “ADCC EC50 nM (RPMI-8226)” value came out at 0.46 nM and the “Apoptosis EC50 nM (DAUDI)” value was found to be 0.048 nM. For the same molecule, the “CDC EC50 nM (MOLP-8)” value in experiment [2] is 1.1 nM. Also, the dissociation constant Kd in experiment [3] amounted to 1.2 nM.

B5: Ab72 (antibody, human IgG1, lambda, V domains shown)
VH: EVQLLESGGGLVQPGGSLRLSCAASGFTFSSYGMNWVRQAPGKGLEWVSGISGSGGSTYYADSVKGRFTISRDNSKNTLYLQMNSLRAEDTAVYYCAKDSNYDFWSGYYYGMDVWGQGTLVTVSS
VL: QSVLTQPPSASGTPGQRVTISCSGSSSNIGSKTVSWYQQLPGTAPKLLIYDNNKRPSGVPDRFSGSKSGTSASLAISGLRSEDEADYYCSSYAARSTNIIFGGGTKLTVLG
With B5, in experiment [1], the Kd was determined as 126 nM, the koff is 0.00182 s⁻¹ and the kon is 14400 M⁻¹ s⁻¹. In experiment [2], the “ADCC EC50 nM (DAUDI)” value worked out at 0.14 nM, the “ADCC EC50 nM (MOLP-8)” value came out at 0.193 nM, the “ADCC EC50 nM (RPMI-8226)” value came out at 2.35 nM and the “Apoptosis EC50 nM (DAUDI)” value is 0.35 nM. Moreover, in experiment [2], the “CDC EC50 nM (MOLP-8)” value was found to be 0.66 nM. In addition, the Kd in experiment [3] was found to be 0.6 nM.

The Kd is the concentration at which binding is half-saturated. As usually defined, the koff is a measure of how fast the partners let go of each other. A word on the kon: it is the second-order rate constant of association. Read a high kon as fast association.
